Experimental data from PMC11573620 (Molecular Therapy, 2024).

Biological target: T1, human CD155 extracellular domain fused to mouse Fc (human, UniProt P15151 21-343)
T1 sequence (looked up): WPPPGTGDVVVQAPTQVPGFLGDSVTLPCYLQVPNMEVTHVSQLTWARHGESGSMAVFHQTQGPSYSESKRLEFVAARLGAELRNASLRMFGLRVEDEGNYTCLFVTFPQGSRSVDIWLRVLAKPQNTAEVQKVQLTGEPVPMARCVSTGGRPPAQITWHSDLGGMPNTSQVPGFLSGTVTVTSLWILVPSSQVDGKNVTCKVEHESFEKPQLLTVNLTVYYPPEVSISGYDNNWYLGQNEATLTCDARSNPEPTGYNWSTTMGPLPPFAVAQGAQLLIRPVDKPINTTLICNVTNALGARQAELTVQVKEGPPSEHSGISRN
Assay: ELISA

- binding result: binds
B1: human TIGIT extracellular domain, biotinylated (domain or fragment, UniProt Q495A1 22-141, looked up)
chain: MMTGTIETTGNISAEKGGSIILQCHLSSTTAQVTQVNWEQQDQLLAICNADLGWHISPSFKDRVAPGPGLGLTLQSLTVNDTGEYFCIYHTYPDGTYTGRIFLEVLESSVAEHGARFQIP
modifications: biotin
